Source: paper PMC2982130 (Molecular Biology of the Cell, 2010)

T1: Recombinant human BMPRII/Fc chimera protein (human, UniProt Q13873 27-150)
T1 sequence: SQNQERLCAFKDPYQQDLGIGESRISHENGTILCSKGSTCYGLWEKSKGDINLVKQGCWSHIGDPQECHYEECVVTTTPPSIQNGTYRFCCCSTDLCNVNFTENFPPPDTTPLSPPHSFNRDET


Legend:
[1] = target: the molecule itself; experiment: cross-linking + co-IP
[2] = target: T1, Recombinant human BMPRII/Fc chimera …; experiment: SPR

Binder	stoichiometry N [1]	Kd [2]
125I-labeled recombinant human BMP4 (ligand, 125I (radioiodinated, Chloramine T method)) SPKHHSQRARKKNKNCRRHSLYVDFSDVGWNDWIVAPPGYQAFYCHGDCPFPLADHLNSTNHAIVQTLVNSVNSSIPKACCVPTELSAISMLYLDEYDKVVLKNYQEMVVEGCGCR	2	–
Recombinant human BMP2 (bone morphogenetic protein 2) (ligand) QAKHKQRKRLKSSCKRHPLYVDFSDVGWNDWIVAPPGYHAFYCHGECPFPLADHLNSTNHAIVQTLVNSVNSKIPKACCVPTELSAISMLYLDENEKVVLKNYQDMVVEGCGCR	–	164 nM
